# Test results from patent US20230279406A1.
# B1: CD91 PV1-iCre-N270-L1-CaffVHH-NLS-BGHpA (protein)
# chain: MSNLLTVHQNLPALPVDATSDEVRKNLMDMFRDRQAFSEHTWKMLLSVCRSWAAWCKLNNRKWFPAEPEDVRDYLLYLQARGLAVKTIQQHLGQLNMLHRRSGLPRPSDSNAVSLVMRRIRKENVDAGERAKQALAFERTDFDQVRSLMENSDRCQDIRNLAFLGIAYNTLLRIAEIARIRVKDISRTDGGRMLIHIGRTKTLVSTAGVEKALSLGVTKLVERWISVSGVADDPNNYLFCRVRKNGVAAPSATSQLSTRALEGIFEATHRSGGSGSGSSGGSGTMEVQLQASGGGLVQAGGSLRLSCTASGRTGTIYSMAWFRQAPGKEREFLATVGWSSGITYYMDSVKGRFTISRDNAKNSAYLQMNSLKPEDTAVYYCTATRAYSVGYDYWGQGTQVTVSHPKKKRKV
# B2: CD245 PV1-RfxCas13d-N565-L1-GID-NLS-BGHpA (protein)
# chain: MIEKKKSFAKGMGVKSTLVSGSKVYMTTFAEGSDARLEKIVEGDSIRSVNEGEAFSAEMADKNAGYKIGNAKFSHPKGYAVVANNPLYTGPVQQDMLGLKETLEKRYFGESADGNDNICIQVIHNILDIEKILAEYITNAAYAVNNISGLDKDIIGFGKFSTVYTYDEFKDPEHHRAAFNNNDKLINAIKAQYDEFDNFLDNPRLGYFGQAFFSKEGRNYIINYGNECYDILALLSGLRHWVVHNNEEESRISRTWLYNLDKNLDNEYISTLNYLYDRITNELTNSFSKNSAANVNYIAETLGINPAEFAEQYFRFSIMKEQKNLGFNITKLREVMLDRKDMSEIRKNHKVFDSIRTKVYTMMDFVIYRYYIEEDAKVAAANKSLPDNEKSLSEKDIFVINLRGSFNDDQKDALYYDEANRIWRKLENIMHNIKEFRGNKTREYKKKDAPRLPRILPAGRDVSAFSKLMYALTMFLDGKEINDLLTTLINKFDNIQSFLKVMPLIGVNAKFVEEYAFFKDSAKIADELRLIKSFARMGEPIADARRAMYIDAIRILGTNLSYDELKSGGSGSGSSGGSGTMAASDEVNLIESRTVVPLNTWVLISNFKVAYNILRRPDGTFNRHLAEYLDRKVTANANPVDGVFSFDVLIDRRINLLSRVYRPAYADQEQPPSILDLEKPVDGDIVPVILFFHGGSFAHSSANSAIYDTLCRRLVGLCKCVVVSVNYRRAPENPYPCAYDDGWIALNWVNSRSWLKSKKDSKVHIFLAGDSSGGNIAHNVALRAGESGIDVLGNILLNPMFGGNERTESEKSLDGKYFVTVRDRDWYWKAFLPEGEDREHPACNPFSPRGKSLEGVSFPKSLVVVAGLDLIRDWQLAYAEGLKKAGQEVKLMHLEKATVGFYLLPNNNHFHNVMDEISAFVNAECPKKKRKV
# B3: CD399 PV1-RfxCas13d-N263-L1-GID-NLS-BGHpA (protein)
# chain: MIEKKKSFAKGMGVKSTLVSGSKVYMTTFAEGSDARLEKIVEGDSIRSVNEGEAFSAEMADKNAGYKIGNAKFSHPKGYAVVANNPLYTGPVQQDMLGLKETLEKRYFGESADGNDNICIQVIHNILDIEKILAEYITNAAYAVNNISGLDKDIIGFGKFSTVYTYDEFKDPEHHRAAFNNNDKLINAIKAQYDEFDNFLDNPRLGYFGQAFFSKEGRNYIINYGNECYDILALLSGLRHWVVHNNEEESRISRTWLYNLDKNLSGGSGSGSSGGSGTMAASDEVNLIESRTVVPLNTWVLISNFKVAYNILRRPDGTFNRHLAEYLDRKVTANANPVDGVFSFDVLIDRRINLLSRVYRPAYADQEQPPSILDLEKPVDGDIVPVILFFHGGSFAHSSANSAIYDTLCRRLVGLCKCVVVSVNYRRAPENPYPCAYDDGWIALNWVNSRSWLKSKKDSKVHIFLAGDSSGGNIAHNVALRAGESGIDVLGNILLNPMFGGNERTESEKSLDGKYFVTVRDRDWYWKAFLPEGEDREHPACNPFSPRGKSLEGVSFPKSLVVVAGLDLIRDWQLAYAEGLKKAGQEVKLMHLEKATVGFYLLPNNNHFHNVMDEISAFVNAECPKKKRKV
# B4: CD373 PV1-RfxCas13d-N559-NLS-BGHpA (protein)
# chain: MIEKKKSFAKGMGVKSTLVSGSKVYMTTFAEGSDARLEKIVEGDSIRSVNEGEAFSAEMADKNAGYKIGNAKFSHPKGYAVVANNPLYTGPVQQDMLGLKETLEKRYFGESADGNDNICIQVIHNILDIEKILAEYITNAAYAVNNISGLDKDIIGFGKFSTVYTYDEFKDPEHHRAAFNNNDKLINAIKAQYDEFDNFLDNPRLGYFGQAFFSKEGRNYIINYGNECYDILALLSGLRHWVVHNNEEESRISRTWLYNLDKNLDNEYISTLNYLYDRITNELTNSFSKNSAANVNYIAETLGINPAEFAEQYFRFSIMKEQKNLGFNITKLREVMLDRKDMSEIRKNHKVFDSIRTKVYTMMDFVIYRYYIEEDAKVAAANKSLPDNEKSLSEKDIFVINLRGSFNDDQKDALYYDEANRIWRKLENIMHNIKEFRGNKTREYKKKDAPRLPRILPAGRDVSAFSKLMYALTMFLDGKEINDLLTTLINKFDNIQSFLKVMPLIGVNAKFVEEYAFFKDSAKIADELRLIKSFARMGEPIADARRAMYIDAIRILGTNLPKKKRKV
# B5: CD243 PV1-RfxCas13d-N559-L1-GID-NLS-BGHpA (protein)
# chain: MIEKKKSFAKGMGVKSTLVSGSKVYMTTFAEGSDARLEKIVEGDSIRSVNEGEAFSAEMADKNAGYKIGNAKFSHPKGYAVVANNPLYTGPVQQDMLGLKETLEKRYFGESADGNDNICIQVIHNILDIEKILAEYITNAAYAVNNISGLDKDIIGFGKFSTVYTYDEFKDPEHHRAAFNNNDKLINAIKAQYDEFDNFLDNPRLGYFGQAFFSKEGRNYIINYGNECYDILALLSGLRHWVVHNNEEESRISRTWLYNLDKNLDNEYISTLNYLYDRITNELTNSFSKNSAANVNYIAETLGINPAEFAEQYFRFSIMKEQKNLGFNITKLREVMLDRKDMSEIRKNHKVFDSIRTKVYTMMDFVIYRYYIEEDAKVAAANKSLPDNEKSLSEKDIFVINLRGSFNDDQKDALYYDEANRIWRKLENIMHNIKEFRGNKTREYKKKDAPRLPRILPAGRDVSAFSKLMYALTMFLDGKEINDLLTTLINKFDNIQSFLKVMPLIGVNAKFVEEYAFFKDSAKIADELRLIKSFARMGEPIADARRAMYIDAIRILGTNLSGGSGSGSSGGSGTMAASDEVNLIESRTVVPLNTWVLISNFKVAYNILRRPDGTFNRHLAEYLDRKVTANANPVDGVFSFDVLIDRRINLLSRVYRPAYADQEQPPSILDLEKPVDGDIVPVILFFHGGSFAHSSANSAIYDTLCRRLVGLCKCVVVSVNYRRAPENPYPCAYDDGWIALNWVNSRSWLKSKKDSKVHIFLAGDSSGGNIAHNVALRAGESGIDVLGNILLNPMFGGNERTESEKSLDGKYFVTVRDRDWYWKAFLPEGEDREHPACNPFSPRGKSLEGVSFPKSLVVVAGLDLIRDWQLAYAEGLKKAGQEVKLMHLEKATVGFYLLPNNNHFHNVMDEISAFVNAECPKKKRKV
# Legend:
# Test in all cases: cell-based or functional assay
# [1] = target: CD92 PV1-CaffVHH-L1-iCre-271C-NLS-BGHpA
# Chain of CD92 PV1-CaffVHH-L1-iCre-271C-NLS-BGHpA (chain, as listed by the source): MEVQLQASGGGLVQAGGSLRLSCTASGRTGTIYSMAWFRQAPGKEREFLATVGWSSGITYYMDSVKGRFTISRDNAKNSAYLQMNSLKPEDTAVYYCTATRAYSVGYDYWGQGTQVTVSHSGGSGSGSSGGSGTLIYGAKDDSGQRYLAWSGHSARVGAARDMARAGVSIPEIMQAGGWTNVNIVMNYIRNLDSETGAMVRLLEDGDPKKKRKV
# [2] = target: T1, CD246 PV1-GAI-L1-RfxCas13d-566C-NLS-BGHpA
# T1 sequence: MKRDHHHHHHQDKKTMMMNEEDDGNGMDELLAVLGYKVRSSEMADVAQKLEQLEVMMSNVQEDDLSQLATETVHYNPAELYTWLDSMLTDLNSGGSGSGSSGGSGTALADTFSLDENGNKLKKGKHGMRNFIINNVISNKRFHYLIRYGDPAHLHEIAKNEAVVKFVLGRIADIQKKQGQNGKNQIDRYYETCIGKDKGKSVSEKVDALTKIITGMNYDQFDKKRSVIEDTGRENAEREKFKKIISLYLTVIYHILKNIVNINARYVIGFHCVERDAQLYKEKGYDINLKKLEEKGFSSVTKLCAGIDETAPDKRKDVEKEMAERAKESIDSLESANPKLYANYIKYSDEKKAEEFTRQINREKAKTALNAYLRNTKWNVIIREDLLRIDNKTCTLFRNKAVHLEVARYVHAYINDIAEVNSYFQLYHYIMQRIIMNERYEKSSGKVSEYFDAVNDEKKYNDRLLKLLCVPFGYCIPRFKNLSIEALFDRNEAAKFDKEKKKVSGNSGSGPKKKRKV
# [3] = target: T2, CD400 PV1-GAI-L1-RfxCas13d-264C-NLS-BGHpA
# T2 sequence: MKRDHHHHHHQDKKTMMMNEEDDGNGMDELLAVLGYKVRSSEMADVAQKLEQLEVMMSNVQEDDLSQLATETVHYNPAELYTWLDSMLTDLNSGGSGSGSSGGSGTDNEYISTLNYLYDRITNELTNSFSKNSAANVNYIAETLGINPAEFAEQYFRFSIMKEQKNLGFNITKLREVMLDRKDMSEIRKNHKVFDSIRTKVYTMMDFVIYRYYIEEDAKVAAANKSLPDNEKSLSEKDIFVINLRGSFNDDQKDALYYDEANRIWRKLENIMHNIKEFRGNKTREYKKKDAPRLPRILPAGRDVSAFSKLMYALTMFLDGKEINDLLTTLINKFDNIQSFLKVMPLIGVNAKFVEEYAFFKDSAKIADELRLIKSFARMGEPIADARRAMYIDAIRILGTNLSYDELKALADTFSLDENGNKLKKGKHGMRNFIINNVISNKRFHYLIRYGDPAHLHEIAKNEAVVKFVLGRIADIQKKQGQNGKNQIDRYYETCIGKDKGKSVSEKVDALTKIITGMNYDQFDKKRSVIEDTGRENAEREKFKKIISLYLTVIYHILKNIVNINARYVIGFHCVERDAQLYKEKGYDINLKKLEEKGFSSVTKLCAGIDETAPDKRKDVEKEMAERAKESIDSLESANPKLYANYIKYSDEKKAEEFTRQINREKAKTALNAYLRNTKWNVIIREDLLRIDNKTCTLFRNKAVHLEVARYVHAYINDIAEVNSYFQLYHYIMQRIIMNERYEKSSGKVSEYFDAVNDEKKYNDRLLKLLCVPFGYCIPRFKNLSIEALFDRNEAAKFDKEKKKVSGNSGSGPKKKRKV
# [4] = target: T3, CD374 PV1-RfxCas13d-560C-NLS-BGHpA
# T3 sequence: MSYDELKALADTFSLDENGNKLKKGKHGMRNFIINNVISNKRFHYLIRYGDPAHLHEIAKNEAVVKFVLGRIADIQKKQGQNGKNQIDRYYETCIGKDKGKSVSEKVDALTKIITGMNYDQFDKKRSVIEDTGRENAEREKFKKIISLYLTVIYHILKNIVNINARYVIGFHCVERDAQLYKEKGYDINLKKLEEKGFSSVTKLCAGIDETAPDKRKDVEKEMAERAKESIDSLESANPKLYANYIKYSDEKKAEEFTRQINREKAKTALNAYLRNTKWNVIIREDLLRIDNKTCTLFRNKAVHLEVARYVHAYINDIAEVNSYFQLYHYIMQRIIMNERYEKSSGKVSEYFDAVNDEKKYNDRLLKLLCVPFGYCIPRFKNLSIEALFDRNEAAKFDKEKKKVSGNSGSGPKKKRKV
# [5] = target: T4, CD244 PV1-GAI-L1-RfxCas13d-560C-NLS-BGHpA
# T4 sequence: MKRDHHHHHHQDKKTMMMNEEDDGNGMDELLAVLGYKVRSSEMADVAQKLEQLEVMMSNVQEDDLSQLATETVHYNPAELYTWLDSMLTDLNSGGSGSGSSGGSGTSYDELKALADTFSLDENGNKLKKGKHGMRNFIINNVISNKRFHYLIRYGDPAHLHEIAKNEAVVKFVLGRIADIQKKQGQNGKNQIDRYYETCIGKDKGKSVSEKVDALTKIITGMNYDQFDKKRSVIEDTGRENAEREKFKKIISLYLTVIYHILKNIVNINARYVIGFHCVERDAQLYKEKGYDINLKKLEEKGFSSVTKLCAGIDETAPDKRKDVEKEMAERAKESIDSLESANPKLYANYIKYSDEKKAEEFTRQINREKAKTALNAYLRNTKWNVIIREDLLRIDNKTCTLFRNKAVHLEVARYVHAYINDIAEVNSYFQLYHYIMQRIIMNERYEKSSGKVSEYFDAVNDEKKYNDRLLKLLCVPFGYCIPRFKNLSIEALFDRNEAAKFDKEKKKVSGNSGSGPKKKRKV
binder,measurement,setting,value
B1,"Cre reporter expression (share of transfected cells), 25 uM caffeine for 5 hours (% of transfected cells)",[1],30
same,"Cre reporter turned on (share of transfected cells), caffeine at least 50 uM, induction at least 5 hours (% transfected cells)",[1],38
same,"Cre reporter turned on (share of transfected cells), caffeine induction, 48 hours (% transfected cells)",[1],> 80
B2,mCherry knockdown with gRNA and gibberellin (drug-induced),[2],> 75%
same,"mCherry knockdown with gRNA, without gibberellin (basal)",[2],10 to 20%
B3,mCherry knockdown efficiency with GIB CID domains,[3],> 60%
B4,"gRNA induced mCherry knockdown efficiency, no CID domain",[4],< 80%
B5,mCherry knockdown with gRNA and gibberellin (drug-induced),[5],> 75%
same,"mCherry knockdown with gRNA, without gibberellin (basal)",[5],10 to 20%
